The source of these data is publication PMC10246534.

pKd: −log10 of the molar value.

Among the targets are sotrovimab; casirivimab (human); imdevimab (human).
Holding throughout (assay): SPR; Biacore T200; […]; HBS-EP, 25 °C; 1:1 binding model
(In general: Surface plasmon resonance follows binding to a sensor surface in real time, without labels.)

imdevimab (human), sequence (heavy, as listed by the source, chain 1 of 2): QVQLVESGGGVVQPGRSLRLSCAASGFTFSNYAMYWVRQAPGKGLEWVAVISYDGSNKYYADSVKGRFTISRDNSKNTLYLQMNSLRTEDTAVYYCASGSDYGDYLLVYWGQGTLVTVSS
imdevimab (human), sequence (light, as listed by the source, chain 2 of 2): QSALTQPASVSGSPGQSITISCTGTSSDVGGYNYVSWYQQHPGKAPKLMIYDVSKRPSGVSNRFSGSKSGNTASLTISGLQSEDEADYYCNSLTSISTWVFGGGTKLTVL
casirivimab (human), sequence (heavy, as listed by the source, chain 1 of 2): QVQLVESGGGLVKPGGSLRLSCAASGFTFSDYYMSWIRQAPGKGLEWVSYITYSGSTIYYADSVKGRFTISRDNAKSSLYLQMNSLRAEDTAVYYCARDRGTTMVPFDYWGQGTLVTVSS
casirivimab (human), sequence (light, as listed by the source, chain 2 of 2): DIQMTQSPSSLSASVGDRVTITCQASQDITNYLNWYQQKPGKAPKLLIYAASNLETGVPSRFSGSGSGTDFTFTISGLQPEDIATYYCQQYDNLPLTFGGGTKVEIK

A word on the pKd: it is the Kd on a negative log10 scale, so that one unit is a factor of ten. “BA.1 RBD + E340A (from UniProt P0DTC2) (domain or fragment)” gave a pKd with sotrovimab of 5.47.
Consider “BA.1 RBD + E340D (from UniProt P0DTC2) (domain or fragment)”, for which, in the assay with sotrovimab, the pKd is 6.12.
“BA.1 RBD + E340K (from UniProt P0DTC2) (domain or fragment)” had a pKd with sotrovimab of 5.46.
Consider “BA.1 RBD + E340V (from UniProt P0DTC2) (domain or fragment)”, for which the pKd with sotrovimab was 6.46.
Consider “BA.1 RBD + P337R (from UniProt P0DTC2) (domain or fragment)”, for which, in the assay with sotrovimab, the pKd is 6.12.
Substance “BA.1 RBD + P337S (from UniProt P0DTC2) (domain or fragment)” had a pKd with sotrovimab of 6.48.
Take “Delta RBD + E406D (from UniProt P0DTC2) (domain or fragment)”: the pKd in the assay with casirivimab (human) was 8.15.
The substance “Delta RBD + E406Q (from UniProt P0DTC2) (domain or fragment)” gave a pKd in the assay with imdevimab (human) of 8.05.
Consider “Delta RBD + G446S (from UniProt P0DTC2) (domain or fragment)”, for which the pKd in the assay with imdevimab (human) was 6.13; in the assay with casirivimab (human), 9.25.
In turn, “Delta RBD + G446V (from UniProt P0DTC2) (domain or fragment)” showed a pKd with casirivimab (human) of 9.19.
On the same count and under the same terms, the figure for “Delta RBD + G446V + L455F (from UniProt P0DTC2) (domain or fragment)” is 7.16.
For the substance “Delta RBD + L455S (from UniProt P0DTC2) (domain or fragment)”, in the assay with imdevimab (human), the pKd was 8.04.
On to “Delta RBD + Y453F (from UniProt P0DTC2) (domain or fragment)”, for which the results for the pKd with imdevimab (human) and in the assay with casirivimab (human) were 8.01 and 7.17, respectively.
